We go through two substances from patent US20250243265A1.

Assay [1] concerns the target endogenous K48 polyubiquitin linkages in 293T cell lysates (human) (UniProt P0CG48). Description: IP in 7 M urea from LUBAC over-expressing 293T lysate (input 12420), mass spec AQUA.
In assay [2] the target is endogenous K63 polyubiquitin linkages in 293T cell lysates (human) (UniProt P0CG48). Description: IP in 7 M urea from LUBAC over-expressing 293T lysate (input 5075), mass spec AQUA.
In assay [3] the target is K63-linked diubiquitin (Boston Biochem) (Homo sapiens (Human)) (UniProt P0CG48). Nature of the assay: western blot, 1 µg/mL IgG, two-fold dilutions of K63-linked diubiquitin. Background: In western blotting, separated proteins are transferred to a membrane and probed.

As for “isotype control IgG (unrelated human kappa IgG1 antibody)”, the polyubiquitin linkages recovered in the IP in assay [1] was found to be 1 pmol; in assay [2], 0 pmol.

For the substance Apu3.A8 anti-K63 IgG (antibody), the limit of detection in western blot in assay [3] was 62 ng.
